Measured values as given in patent US20160031942A1 (LONDON HEALTH SCIENCES CENTRE RESEARCH, published 2016).
Square brackets hold non-standard residues; d marks the D form. Ends that are not written are not given here. * marks the point of attachment. FITC = O=C1OC2(c3ccc(O)cc3Oc3cc(O)ccc32)c2ccc(NC(=S)*)cc21; Ahx = NCCCCCC(=O)O

T1: Recombinant protein RHAMM-CT (truncated RHAMM, carboxy terminus containing the HA binding domain, amino acids … (UniProt Q00547 706-766))
T1 chain: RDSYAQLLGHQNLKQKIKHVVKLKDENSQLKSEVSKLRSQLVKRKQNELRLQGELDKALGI

T2: Recombinant protein RHAMM-CT (truncated RHAMM, carboxy terminus containing the HA binding domain, amino acids … (Mus musculus (Mouse), UniProt Q00547 706-766))
T2 construct: Expressed in E. coli BL21 from pPAL7-RHAMM as eXact-tagged protein and purified on Profinity eXact resin (fluoride elution); M.W. 7.1 kDa, pI 10.1; also called recombinant RHAMM
T2 sequence: T1 chain

T3: RHAMM (Receptor for Hyaluronic Acid Mediated Motility, CD168) expressed on human cancer cells (human, UniProt O75330 1-724)
T3 sequence (looked up): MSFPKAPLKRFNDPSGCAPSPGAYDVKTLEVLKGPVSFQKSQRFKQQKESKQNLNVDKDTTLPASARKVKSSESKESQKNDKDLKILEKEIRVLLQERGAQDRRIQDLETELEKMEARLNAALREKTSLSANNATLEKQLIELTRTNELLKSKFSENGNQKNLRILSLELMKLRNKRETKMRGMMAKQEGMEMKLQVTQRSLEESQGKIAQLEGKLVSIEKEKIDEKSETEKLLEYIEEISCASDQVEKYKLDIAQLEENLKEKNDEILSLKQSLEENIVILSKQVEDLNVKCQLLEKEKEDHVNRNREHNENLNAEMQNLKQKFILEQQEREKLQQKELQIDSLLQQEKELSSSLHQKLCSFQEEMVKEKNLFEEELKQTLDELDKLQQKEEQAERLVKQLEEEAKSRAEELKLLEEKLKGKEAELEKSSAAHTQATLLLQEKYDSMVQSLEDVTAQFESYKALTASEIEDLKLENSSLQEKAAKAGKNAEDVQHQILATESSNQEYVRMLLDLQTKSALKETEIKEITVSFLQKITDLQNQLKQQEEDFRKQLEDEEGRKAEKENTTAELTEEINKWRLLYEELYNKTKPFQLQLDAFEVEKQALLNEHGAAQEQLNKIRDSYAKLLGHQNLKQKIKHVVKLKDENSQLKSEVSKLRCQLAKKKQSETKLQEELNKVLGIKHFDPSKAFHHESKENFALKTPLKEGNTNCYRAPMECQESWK

B1: peptide 14a (SEQ ID NO: 14), unmodified tubulin-derived peptide, sequence directly flanking beta-IIIa CTT (peptide)
peptide: FTEAESNMNDLV-NH2
notes: Synthetic 12-mer made on Rink amide MBHA resin
B2: peptide 9c (SEQ ID NO: 29), fluorescein-conjugated SEQ ID NO: 9 (peptide)
peptide: {FITC}-[Ahx]EEDFGEEAEEEA-NH2
notes: also called fluorescein-conjugated HA mimetic

Experiments:
[1] = target: T1, Recombinant protein RHAMM-CT (truncated …); assay: SPR; RHAMM 750 nM
[2] = target: T1, Recombinant protein RHAMM-CT (truncated …); assay: SPR; RHAMM 1000 nM
[3] = target: T2, Recombinant protein RHAMM-CT (truncated …); assay: SPR (GWC SPRimager II), thiol-containing peptide immobilised on maleimide chip, RHAMM injected at 500, 750, 1000 nM, 1:1 Langmuir fit
Method: After peptide screening, GWC SPRimager®II system was used to determine binding kinetic constants. Thiol-containing peptides at 1 nM concentration in milliQ water were immobilized on a maleimide-functionalized gold-plated chip for 3 hours. Excess peptides were removed by washing with milliQ water. For binding studies, a series of concentrations (500 nM, 750 nM, and 1000 nM) of RHAMM were injected over the immobilized peptides. After a 15 min dissociation phase, the sensor chip surface was regenerated for the next peptide sample injection, via treatment with two 10 min pulse injections of regenerating buffer (2 M NaCl in HBS-EP, pH 7.4) at […]. Baseline returned to the initial value after the regeneration step, confirming the removal of all bound analytes. Data were analyzed and the corresponding dissociation constants (KD) were obtained via non-linear regression fitting to a Langmuir binding model. In all experiments, reference subtraction was performed using data obtained from reference plate (no peptide) and peptide functionalized plate.

[4] = target: T1, Recombinant protein RHAMM-CT (truncated …); assay: SPR
[5] = target: T2, Recombinant protein RHAMM-CT (truncated …); assay: SPR screening (ProteON XPR36), RHAMM immobilised, peptide at 10 µM
Method: ProteON XPR36 system was used for the selection and ranking of different tubulin derived peptides against RHAMM. For immobilization of RHAMM, the ProteON GLC sensor chip surfaces were activated by amine coupling using 100 mM EDAC and 24 mM sulfo-NHS. RHAMM (30 μg/mL in sodium bicarbonate buffer, pH 9.7) was injected at a flow a rate of 30 μl/min. A buffer sample was injected on a different sensor plate for use as a reference. Ethanolamine HCl (1M, pH 8.5) was then injected to deactivate any remaining surface groups. Peptides (10 μM in PBS-T, 2% DMSO) were injected to a RHAMM functionalized surface at 50 μL/min for 3 minutes followed by a 10 minute dissociation (i.e. injection of PBS-T buffer) period. The surfaces were regenerated using two injections of 30 μL of 1M NaCl prior to the injection of the next peptide. In all experiments, reference subtraction was performed using data obtained from reference plate (No RHAMM) and RHAMM functionalized plate.
After immobilization of RHAMM on the SPR sensor chip, injection of a series of tubulin derived peptides was carried out. Association of the peptides with RHAMM proceeded for 3 minutes and the dissociation in analyte free buffer was carried out for 10 minutes. […]

[6] = target: T3, RHAMM (Receptor for Hyaluronic Acid …); assay: cell-based or functional assay
[7] = target: T2, Recombinant protein RHAMM-CT (truncated …); assay: ELISA, fluorescein-labelled peptide on immobilised RHAMM
Method: ELISA was carried out to test the ability of FITC-labelled tubulin-derived peptides compete with HA for binding site with RHAMM. Recombinant RHAMM (100 μL, 10 μg/mL in 0.05M PBS, pH=9) was immobilized on 96-well ELISA plates (final concentration of 1 μg/well) and incubated overnight at 4° C. resulting in final amount of protein 1 μg/well. Plates were washed three times with (0.05%) PBS-Tween-20 buffer (200 μL/well), washed with blocking buffer (5% 200 μL/well, PBS-Tween-20 per well), and incubated for 1 hour at room temperature. Following three washes as described above, FITC-labeled tubulin derived peptides (final concentration of 1 μg/mL) and HA (100 μL/well, M.W. 220 kDa, 10 μg/mL in PBS, serial dilutions have been made for HA=1:1, 1:2, 1:4, 1:8, 1:16) were added to plates and incubated overnight at 4° C. Plates were washed as described above, and absorbance was measured at 485/535 nm.
A competitive ELISA was done to determine the selectivity of the peptides to the HA binding domain of RHAMM. In this assay, fluorescein-labelled peptides were used and the effectiveness of unlabelled HA to block the binding of peptides to RHAMM was evaluated. Fluorescein-labelled peptides SEQ ID NOs: 1, 3, 9, 11, 12 and 14, corresponding to peptides 1c, 3c, 9c, 11c, 12c and 14c in FIG. 2B (SEQ ID NOs: 25, 27, 29, 31, 33 and 35) were added to ELISA plates containing immobilized RHAMM, followed by the addition of varying concentration of HA, which is the natural ligand of RHAMM. A decrease in observed fluorescence is seen as HA displaces the fluorescein-labelled peptides if they compete for the same binding site.

[8] = target: T2, Recombinant protein RHAMM-CT (truncated …); assay: solid phase peptide binding assay (ELISA), immobilised RHAMM

Row | Binder | Kd [3] [nM] | reduction in cellular fluorescence (uptake in MDA-MB-231 cells) when cells are blocked with anti-RHAMM mAb [6] [%] | binding result [7] | binding result [8] | other results
1 | Ac-C[Ahx]FTEAESNMNDLV-NH2 [peptide 14b (SEQ ID NO: 34), SEQ ID NO: 14 with N-acetyl cysteine modified N-terminus] | 30 |  |  |  | Kd [1]: 29 nM; Kd [2]: 31.9 nM
2 | B1 |  |  |  |  | Kd [4]: 30 nM; binding result [5]: binds
3 | Ac-C[Ahx]EEDFGEEAEEEA-NH2 [peptide 9b (SEQ ID NO: 28), SEQ ID NO: 9 with N-acetyl cysteine modified N-terminus] | 32 |  |  |  | Kd [1]: 33.8 nM
4 | {FITC-Ahx}-VEGEGEEEGEEY-NH2 [peptide 1c (SEQ ID NO: 25), fluorescein-conjugated SEQ ID NO: 1] |  | ~85 | binds |  | 
5 | B2 |  | ~76 | binds |  | 
6 | {FITC-Ahx}-FTEAESNMNDLV-NH2 [peptide 14c (SEQ ID NO: 35), fluorescein-conjugated SEQ ID NO: 14] |  | ~65 | binds |  | 
7 | Ac-C[Ahx]VEGEGEEEGEEY-NH2 [peptide 1b (SEQ ID NO: 24), SEQ ID NO: 1 with N-acetyl cysteine modified N-terminus] | 24 |  |  |  | 
8 | {FITC-Ahx}-SVEAEAEEGEEY-NH2 [peptide 3c (SEQ ID NO: 27), fluorescein-conjugated SEQ ID NO: 3] |  |  |  | binds | 
9 | {FITC-Ahx}-GEFEEEAEEEVA-NH2 [peptide 11c (SEQ ID NO: 31), fluorescein-conjugated SEQ ID NO: 11] |  |  |  | binds | 
10 | {FITC-Ahx}-EAFEDEEEEIDG-NH2 [peptide 12c (SEQ ID NO: 33), fluorescein-conjugated SEQ ID NO: 12] |  |  |  | binds | 
